Experimental findings from article PMC10397247 are described below.

Common to all, as to test: two-hybrid library CCNG1;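 also: natural log of median RNA to DNA barcode read ratio; higher means stronger binding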
The target in one test is T1, 4H3277-bN.
T1 chain: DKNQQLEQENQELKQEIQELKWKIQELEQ

A further test has as its target T2, 4H492-bN.
T2 chain: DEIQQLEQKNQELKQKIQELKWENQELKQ

The target of the next test is T3, 4H319-bN.
T3 chain: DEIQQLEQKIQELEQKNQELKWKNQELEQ

The target of a further test is T4, 4H2717-bN.
T4 chain: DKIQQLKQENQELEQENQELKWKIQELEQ

A further test addresses T5, 4H2692-bN.
T5 chain: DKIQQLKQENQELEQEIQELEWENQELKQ

The next test has as its target T6, 4H741-bN.
T6 chain: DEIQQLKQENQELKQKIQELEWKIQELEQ

A further test addresses T7, 4H2839-bN.
T7 chain: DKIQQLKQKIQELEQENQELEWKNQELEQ

The next test deals with T8, 4H2588-bN.
T8 chain: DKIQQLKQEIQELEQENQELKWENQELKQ

Another test addresses T9, 4H477-bN.
T9 chain: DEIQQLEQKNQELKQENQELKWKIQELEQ

Another test addresses T10, 4H348-bN.
T10 chain: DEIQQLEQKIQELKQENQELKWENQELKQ

For a further test, the target named is T11, 4H3057-bN.
T11 chain: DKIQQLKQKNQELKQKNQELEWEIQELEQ

Another test deals with T12, 4H2915-bN.
T12 chain: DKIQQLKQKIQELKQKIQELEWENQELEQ

A further test deals with T13, 4H40-bN.
T13 chain: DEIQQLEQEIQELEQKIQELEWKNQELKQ

Another test addresses T14, 4H2931-bH.
T14 chain: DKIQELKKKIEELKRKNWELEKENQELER

A further test addresses T15, 4H3041-bH.
T15 chain: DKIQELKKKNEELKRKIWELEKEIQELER

The target of another test is T16, 4H949-bH.
T16 chain: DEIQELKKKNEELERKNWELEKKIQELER

The target in a further test is T17, 4H56-bH.
T17 chain: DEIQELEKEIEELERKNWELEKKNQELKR

Another test has as its target T18, 4H3297-bH.
T18 chain: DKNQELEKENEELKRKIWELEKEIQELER

The target of a further test is T19, 4H4001-bH.
T19 chain: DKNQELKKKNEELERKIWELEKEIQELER

For the next test, the target named is T20, 4H3381-bH.
T20 chain: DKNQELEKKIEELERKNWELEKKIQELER

In a further test the target is T21, 4H2859-bH.
T21 chain: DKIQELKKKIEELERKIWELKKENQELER

In another test the target is T22, 4H2585-bH.
T22 chain: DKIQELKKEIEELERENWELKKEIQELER

The next test addresses T23, 4H730-bH.
T23 chain: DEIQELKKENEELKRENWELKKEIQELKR

The target of a further test is T24, 4H264-bH.
T24 chain: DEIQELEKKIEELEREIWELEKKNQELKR

The target in another test is T25, 4H2760-bH.
T25 chain: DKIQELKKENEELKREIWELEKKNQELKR

The target of the next test is T26, 4H349-bH.
T26 chain: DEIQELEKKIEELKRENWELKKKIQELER

Another test concerns the target T27, 4H932-bH.
T27 chain: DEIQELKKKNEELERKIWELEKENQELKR

The next test addresses T28, 4H796-bH.
T28 chain: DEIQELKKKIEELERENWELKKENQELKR

The next test has as its target T29, 4H3364-bH.
T29 chain: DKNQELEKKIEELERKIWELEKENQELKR

B1: 4H2588-bN (peptide)
chain: DKIQQLKQEIQELEQENQELKWENQELKQ
As for B1, the interaction score in the test with 4H3277-bN is -0.49; in the test with 4H492-bN it was -0.343; with 4H319-bN, -0.863; with 4H2717-bN, 0.223; in the test with 4H2692-bN it was 0.0187; with 4H741-bN it was 0.0254. In addition, the interaction score in the test with 4H2839-bN was -1.16; with 4H2588-bN, 0.138; with 4H477-bN, -1.95; in the test with 4H348-bN, 1.49; in the test with 4H3057-bN, -1.34; in the test with 4H2915-bN, 0.795. The same molecule registered an interaction score with 4H40-bN of -0.648.

B2: 4H2585-bH (peptide)
chain: DKIQELKKEIEELERENWELKKEIQELER
In the case of B2, the interaction score in the test with 4H2931-bH was -0.336; in the test with 4H3041-bH, 0.00364; with 4H949-bH it was -0.693; in the test with 4H56-bH, 0.21; with 4H3297-bH it was -0.417; with 4H4001-bH it was -0.0821. Also, the interaction score in the test with 4H3381-bH is -0.48; with 4H2859-bH, 0.965; in the test with 4H2585-bH, -0.17; in the test with 4H730-bH, -0.529; with 4H264-bH it was -0.751; with 4H477-bN, -0.435. Further, the interaction score was 0.55 in the test with 4H2760-bH; 1.63 with 4H349-bH; -1.27 with 4H932-bH; -0.9 with 4H796-bH; -0.536 in the test with 4H3364-bH.
